Reference: US20090099029A1, “Methods and substrates for conducting assays” (Invitrogen Corporation, priority 2005, published 2009)

B1: TEC (protein)
chain: MNFNTILEEILIKRSQQKKKTSPLNYKERLFVLTKSMLTYYEGRAEKKYRKGFIDVSKIKCVEIVKNDDGVIPCQNKYPFQVVHDANTLYIFAPSPQSRDLWVKKLKEEIKNNNNIMIKYHPKFWTDGSYQCCRQTEKLAPGCEKYNLFESSIRKALPPAPETKKRRPPPPIPLEEEDNSEEIVVAMYDFQAAEGHDLRLERGQEYLILEKNDVHWWRARDKYGNEGYIPSNYVTGKKSNNLDQYEWYCRNMNRSKAEQLLRSEDKEGGFMVRDSSQPGLYTVSLYTKFGGEGSSGFRHYHIKETTTSPKKYYLAEKHAFGSIPEIIEYHKHNAAGLVTRLRYPVSVKGKNAPTTAGFSYEKWEINPSELTFMRELGSGLFGVVRLGKWRAQYKVAIKAIREGAMCEEDFIEEAKVMMKLTHPKLVQLYGVCTQQKPIYIVTEFMERGCLLNFLRQRQGHFSRDVLLSMCQDVCEGMEYLERNSFIHRDLAARNCLVSEAGVVKVSDFGMARYVLDDQYTSSSGAKFPVKWCPPEVFNYSRFSSKSDVWSFGVLMWEVFTEGRMPFEKYTNYEVVTMVTRGHRLYQPKLASNYVYEVMLRCWQEKPEGRPSFEDLLRTIDELVECEETFGR
modifications: left off: small tags and cut ends
B2: AKT3 (protein)
chain: MSDVTIVKEGWVQKRGEYIKNWRPRYFLLKTDGSFIGYKEKPQDVDLPYPLNNFSVAKCQLMKTERPKPNTFIIRCLQWTTVIERTFHVDTPEEREEWTEAIQAVADRLQRQEEERMNCSPTSQIDNIGEEEMDASTTHHKRKTMNDFDYLKLLGKGTFGKVILVREKASGKYYAMKILKKEVIIAKDEVAHTLTESRVLKNTRHPFLTSLKYSFQTKDRLCFVMEYVNGGELFFHLSRERVFSEDRTRFYGAEIVSALDYLHSGKIVYRDLKLENLMLDKDGHIKITDFGLCKEGITDAATMKTFCGTPEYLAPEVLEDNDYGRAVDWWGLGVVMYEMMCGRLPFYNQDHEKLFELILMEDIKFPRTLSSDAKSLLSGLLIKDPNKRLGGGPDDAKEIMRHSFFSGVNWQDVYDKKLVPPFKPQVTSETDTRYFDEEFTAQTITITPPEKYDEDGMDCMDNERRPHFPQFSYSASGRE
modifications: left off: small tags and cut ends
B3: MATK(HYL) (protein)
chain: MQGHFPAERREGRPRRGTRGQQQLLVSPRFLRAWHPPPVSARMPTRRWAPGTQCITKCEHTRPKPGELAFRKGDVVTILEACENKSWYRVKHHTSGQEGLLAAGALREREALSADPKLSLMPWFHGKISGQEAVQQLQPPEDGLFLVRESARHPGDYVLCVSFGRDVIHYRVLHRDGHLTIDEAVFFCNLMDMVEHYSKDKGAICTKLVRPKRKHGTKSAEEELARAGWLLNLQHLTLGAQIGEGEFGAVLQGEYLGQKVAVKNIKCDVTAQAFLDETAVMTKMQHENLVRLLGVILHQGLYIVMEHVSKGNLVNFLRTRGRALVNTAQLLQFSLHVAEGMEYLESKKLVHRDLAARNILVSEDLVAKVSDFGLAKAERKGLDSSRLPVKWTAPEALKHGKFTSKSDVWSFGVLLWEVFSYGRAPYPKMSLKEVSEAVEKGYRMEPPEGCPGPVHVLMSSCWEAEPARRPPFRKLAEKLARELRSAGAPASVSGQDADGSTSPRSQEP
modifications: left off: small tags and cut ends
B4: AKT2 (protein)
chain: MNEVSVIKEGWLHKRGEYIKTWRPRYFLLKSDGSFIGYKERPEAPDQTLPPLNNFSVAECQLMKTERPRPNTFVIRCLQWTTVIERTFHVDSPDEREEWMRAIQMVANSLKQRAPGEDPMDYKCGSPSDSSTTEEMEVAVSKARAKVTMNDFDYLKLLGKGTFGKVILVREKATGRYYAMKILRKEVIIAKDEVAHTVTESRVLQNTRHPFLTALKYAFQTHDRLCFVMEYANGGELFFHLSRERVFTEERARFYGAEIVSALEYLHSRDVVYRDIKLENLMLDKDGHIKITDFGLCKEGISDGATMKTFCGTPEYLAPEVLEDNDYGRAVDWWGLGVVMYEMMCGRLPFYNQDHERLFELILMEEIRFPRTLSPEAKSLLAGLLKKDPKQRLGGGPSDAKEVMEHRFFLSINWQDVVQKKLLPPFKPQVTSEVDTRYFDDEFTAQSITITPPDRYDSLGLLELDQRTHFPQFSYSASIRE
modifications: left off: small tags and cut ends
B5: PTK2(FAK) (protein)
chain: MAAAYLDPNLNHTPNSSTKTHLGTGMERSPGAMERVLKVFHYFESNSEPTTWASIIRHGDATDVRGIIQKIVDSHKVKHVACYGFRLSHLRSEEVHWLHVDMGVSSVREKYELAHPPEEWKYELRIRYLPKGFLNQFTEDKPTLNFFYQQVKSDYMLEIADQVDQEIALKLGCLEIRRSYWEMRGNALEKKSNYEVLEKDVGLKRFFPKSLLDSVKAKTLRKLIQQTFRQFANLNREESILKFFEILSPVYRFDKECFKCALGSSWIISVELAIGPEEGISYLTDKGCNPTHLADFTQVQTIQYSNSEDKDRKGMLQLKIAGAPEPLTVTAPSLTIAENMADLIDGYCRLVNGTSQSFIIRPQKEGERALPSIPKLANSEKQGMRTHAVSVSETDDYAEIIDEEDTYTMPSTRDYEIQRERIELGRCIGEGQFGDVHQGIYMSPENPALAVAIKTCKNCTSDSVREKFLQEALTMRQFDHPHIVKLIGVITENPVWIIMELCTLGELRSFLQVRKYSLDLASLILYAYQLSTALAYLESKRFVHRDIAARNVLVSSNDCVKLGDFGLSRYMEDSTYYKASKGKLPIKWMAPESINFRRFTSASDVWMFGVCMWEILMHGVKPFQGVKNNDVIGRIENGERLPMPPNCPPTLYSLMTKCWAYDPSRRPRFTELKAQLSTILEEEKAQQEERMRMESRRQATVSWDSGGSDEAPPKPSRPGYPSPRSSEGFYPSPQHMVQTNHYQVSGYPGSHGITAMAGSIYPGQASLLDQTDSWNHRPQEIAMWQPNVEDSTVLDLRGIGQVLPTHLMEERLIRQQQEMEEDQRWLEKEERFLKPDVRLSRGSIDREDGSLQGPIGNQHIYQPVGKPDPAAPPKKPPRPGAPGHLGSLASLSSPADSYNEGVKLQPQEISPPPTANLDRSNDKVYENVTGLVKAVIEMSSKIQPAPPEEYVPMVKEVGLALRTLLATVDETIPLLPASTHREIEMAQKLLNSDLGELINKMKLAQQYVMTSLQQEYKKQMLTAAHALAVDAKNLLDVIDQARLKMLGQTRPH
modifications: left off: a dimerising Fc or GST
B6: ZAP70 (protein)
chain: MPDPAAHLPFFYGSISRAEAEEHLKLAGMADGLFLLRQCLRSLGGYVLSLVHDVRFHHFPIERQLNGTYAIAGGKAHCGPAELCEFYSRDPDGLPCNLRKPCNRPSGLEPQPGVFDCLRDAMVRDYVRQTWKLEGEALEQAIISQAPQVEKLIATTAHERMPWYHSSLTREEAERKLYSGAQTDGKFLLRPRKEQGTYALSLIYGKTVYHYLISQDKAGKYCIPEGTKFDTLWQLVEYLKLKADGLIYCLKEACPNSSASNASGAAAPTLPAHPSTLTHPQRRIDTLNSDGYTPEPARITSPDKPRPMPMDTSVYESPYSDPEELKDKKLFLKRDNLLIADIELGCGNFGSVRQGVYRMRKKQIDVAIKVLKQGTEKADTEEMMREAQIMHQLDNPYIVRLIGVCQAEALMLVMEMAGGGPLHKFLVGKREEIPVSNVAELLHQVSMGMKYLEEKNFVHRDLAARNVLLVNRHYAKISDFGLSKALGADDSYYTARSAGKWPLKWYAPECINFRKFSSRSDVWSYGVTMWEALSYGQKPYKKMKGPEVMAFIEQGKRMECPPECPPELYALMSDCWIYKWEDRPDFLTVEQRMRACYYSLASKVEGPPGSTQKAEAACA
modifications: left off: small tags and cut ends
B7: CSF1R (protein)
chain: YKYKQKPKYQVRWKIIESYEGNSYTFIDPTQLPYNEKWEFPRNNLQFGKTLGAGAFGKVVEATAFGLGKEDAVLKVAVKMLKSTAHADEKEALMSELKIMSHLGQHENIVNLLGACTHGGPVLVITEYCCYGDLLNFLRRKAEAMLGPSLSPGQDPEGGVDYKNIHLEKKYVRRDSGFSSQGVDTYVEMRPVSTSSNDSFSEQDLDKEDGRPLELRDLLHFSSQVAQGMAFLASKNCIHRDVAARNVLLTNGHVAKIGDFGLARDIMNDSNYIVKGNARLPVKWMAPESIFDCVYTVQSDVWSYGILLWEIFSLGLNPYPGILVNSKFYKLVKDGYQMAQPAFAPKNIYSIMQACWALEPTHRPTFQQICSFLQEQAQEDRRERDYTNLPSSSRSGGSGSSSSELEEESSSEHLTCCEQGDIAQPLLQPNNYQFC
modifications: left off: small tags and cut ends
B8: ADRBK2(GRK3) (protein, UniProt P35626 1-688, looked up)
G protein-coupled receptor …: MADLEAVLADVSYLMAMEKSKATPAARASKRIVLPEPSIRSVMQKYLAERNEITFDKIFNQKIGFLLFKDFCLNEINEAVPQVKFYEEIKEYEKLDNEEDRLCRSRQIYDAYIMKELLSCSHPFSKQAVEHVQSHLSKKQVTSTLFQPYIEEICESLRGDIFQKFMESDKFTRFCQWKNVELNIHLTMNEFSVHRIIGRGGFGEVYGCRKADTGKMYAMKCLDKKRIKMKQGETLALNERIMLSLVSTGDCPFIVCMTYAFHTPDKLCFILDLMNGGDLHYHLSQHGVFSEKEMRFYATEIILGLEHMHNRFVVYRDLKPANILLDEHGHARISDLGLACDFSKKKPHASVGTHGYMAPEVLQKGTAYDSSADWFSLGCMLFKLLRGHSPFRQHKTKDKHEIDRMTLTVNVELPDTFSPELKSLLEGLLQRDVSKRLGCHGGGSQEVKEHSFFKGVDWQHVYLQKYPPPLIPPRGEVNAADAFDIGSFDEEDTKGIKLLDCDQELYKNFPLVISERWQQEVTETVYEAVNADTDKIEARKRAKNKQLGHEEDYALGKDCIMHGYMLKLGNPFLTQWQRRYFYLFPNRLEWRGEGESRQNLLTMEQILSVEETQIKDKKCILFRIKGGKQFVLQCESDPEFVQWKKELNETFKEAQRLLRRAPKFLNKPRSGTVELPKPSLCHRNSNGL

The molecules below were run on kinases of Table 6 on Myelin Basic Protein (MBP) (assay: Kinase assay using MBP substrate, ProQ Diamond stain (Table 6)). Details: kinase printed on MBP-coated slide; 20 uM ATP, 30° C.; ProQ Diamond Microarray Stain; graded Strong/Weak/Negative.
Format: biochemical
Summary of the method: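 Reactions ran at 30° C. with 20 uM ATP, 4 mM MgCl2 and 5% DMSO in HEPES pH 7.5, inhibitor added or omitted. Kinases had been arrayed onto slide-bound dephosphorylated bovine MBP; phospho-signal read after ProQ Diamond staining.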
In the case of B1, the “MBP Kinase Activity” value is reported as “Negative”.
With B2 the “MBP Kinase Activity” value was “Strong”.
With B3 the “MBP Kinase Activity” value was “Negative”.
With B4 the “MBP Kinase Activity” value was “Strong”.
For B5, the “MBP Kinase Activity” value was “Negative”.
For B6, the “MBP Kinase Activity” value was “Negative”.
In the case of B7, the “MBP Kinase Activity” value is reported as “Strong”.
For B8, the “MBP Kinase Activity” value was “Negative”.
